This note sets out measurements from patent US20230416365A1 (Hoffmann-La Roche, published 2023).

Where two headings read alike, the source gives them in different places.

Assay [1] has as its target T1, biotinylated huCD28-Fc (dimeric CD28-Fc construct with a monovalent biotinylated avi-tag) (human, UniProt P10747 19-152, biotinylated at the C-terminal avi tag).
T1 construct: not shown: hum IgG1 Fc fragment with hole and PG-LALA mutations; hum IgG1 Fc fragment with knob and PG-LALA mutations
In words: SPR, ProteOn XPR36, huCD28-Fc on NLC chip, bispecific as analyte. On the technique in general: SPR reads the build-up and loss of mass on a sensor chip optically.

Assay [2] has as its target T2, human CD28 on CHO cells (parental cell line CHO-k1 ATCC #CCL-61, modified to stably overexpress human CD28) (human, UniProt P10747 19-220).
T2 construct: also called hu CD28; CHO-hCD28
The assay is described as follows: binding to CHO cells expressing human CD28 (by the table's title).

Assay [3] addresses T3, human FAP on 3T3-huFAP cells (clone 19) (human, UniProt Q12884 1-760). In words: flow cytometry on 3T3-huFAP cells, FAP-CD28 1+1 constructs, MFI (PE).
Assay [4] addresses T3, human FAP on 3T3-huFAP cells (clone 19). Described as above. This is another data set of the same source.
The target in assay [5] is T4, N(A2B2)A-avi-His (biotinylated at the avi tag).
T4 construct: also called biotinylated N(A2B2)A-avi-His
T4 chain: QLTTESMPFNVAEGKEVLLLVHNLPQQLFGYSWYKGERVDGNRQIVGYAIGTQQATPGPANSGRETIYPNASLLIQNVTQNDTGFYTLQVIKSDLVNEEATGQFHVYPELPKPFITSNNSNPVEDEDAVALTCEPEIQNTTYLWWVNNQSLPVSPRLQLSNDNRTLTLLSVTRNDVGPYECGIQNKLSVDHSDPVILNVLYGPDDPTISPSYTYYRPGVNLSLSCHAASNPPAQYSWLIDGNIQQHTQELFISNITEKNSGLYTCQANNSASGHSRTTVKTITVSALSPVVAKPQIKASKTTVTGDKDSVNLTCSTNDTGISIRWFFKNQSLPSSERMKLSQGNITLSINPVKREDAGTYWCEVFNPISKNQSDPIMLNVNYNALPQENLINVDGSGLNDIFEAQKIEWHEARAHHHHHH
The assay is described as follows: SPR, ProteOn, antigen on NLC chip, purified Fab as analyte.

The target in assay [6] is T4, N(A2B2)A-avi-His. In words: SPR off-rate, ProteOn, antigen on NLC chip, Fab in bacterial supernatant.
The target in the next assay is T5, NA(B2)A-avi-His (biotinylated at the avi tag).
T5 chain: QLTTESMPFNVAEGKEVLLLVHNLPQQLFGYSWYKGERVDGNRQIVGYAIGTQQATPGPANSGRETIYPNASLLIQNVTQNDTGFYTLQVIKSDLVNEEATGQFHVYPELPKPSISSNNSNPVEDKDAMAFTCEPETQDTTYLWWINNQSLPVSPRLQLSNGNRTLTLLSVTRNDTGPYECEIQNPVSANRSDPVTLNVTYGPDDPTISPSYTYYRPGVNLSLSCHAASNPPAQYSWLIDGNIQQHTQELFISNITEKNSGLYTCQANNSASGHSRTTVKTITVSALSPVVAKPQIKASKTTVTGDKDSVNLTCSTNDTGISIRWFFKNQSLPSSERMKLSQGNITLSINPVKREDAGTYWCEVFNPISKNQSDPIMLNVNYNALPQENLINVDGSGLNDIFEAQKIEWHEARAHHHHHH
In words: SPR, ProteOn, 2000 RU NA(B2)A-avi-His on NLC chip, Fab in bacterial supernatant.

B1: FAP (4B9) - CD28 (CD28(SA)_Variant 19) 1+1 (bispecific antibody, human IgG1, kappa, L234A L235A)
heavy 1: EIVLTQSPGTLSLSPGERATLSCRASQSVTSSYLAWYQQKPGQAPRLLINVGSRRATGIPDRFSGSGSGTDFTLTISRLEPEDFAVYYCQQGIMLPPTFGQGTKVEIKSSASTKGPSVFPLAPSSKSTSGGTAALGCLVKDYFPEPVTVSWNSGALTSGVHTFPAVLQSSGLYSLSSVVTVPSSSLGTQTYICNVNHKPSNTKVDKKVEPKSCDKTHTCPPCPAPEAAGGPSVFLFPPKPKDTLMISRTPEVTCVVVDVSHEDPEVKFNWYVDGVEVHNAKTKPREEQYNSTYRVVSVLTVLHQDWLNGKEYKCKVSNKALGAPIEKTISKAKGQPREPQVCTLPPSRDELTKNQVSLSCAVKGFYPSDIAVEWESNGQPENNYKTTPPVLDSDGSFFLVSKLTVDKSRWQQGNVFSCSVMHEALHNHYTQKSLSLSP
light 1: EVQLLESGGGLVQPGGSLRLSCAASGFTFSSYAMSWVRQAPGKGLEWVSAIIGSGASTYYADSVKGRFTISRDNSKNTLYLQMNSLRAEDTAVYYCAKGWFGGFNYWGQGTLVTVSSASVAAPSVFIFPPSDEQLKSGTASVVCLLNNFYPREAKVQWKVDNALQSGNSQESVTEQDSKDSTYSLSSTLTLSKADYEKHKVYACEVTHQGLSSPVTKSFNRGEC
heavy 2: not shown
light 2: not shown
notes: huIgG1 PG-LALA CrossFab 1+1; also called P1AE3137
In assay [1], B1 had a Kd of 1.1 nM, a dissociation rate constant (koff) of 0.000304 s⁻¹ and a kon of 280000 M⁻¹ s⁻¹. Further, the Kd in assay [2] was 1.1 nM. Also, the binding result in assay [3] is given as “binds”.

B2: FAP (4B9) - CD28 (CD28(SA)_Variant 12) 1+1 (bispecific antibody, human IgG1, kappa, L234A L235A)
heavy 1: EIVLTQSPGTLSLSPGERATLSCRASQSVTSSYLAWYQQKPGQAPRLLINVGSRRATGIPDRFSGSGSGTDFTLTISRLEPEDFAVYYCQQGIMLPPTFGQGTKVEIKSSASTKGPSVFPLAPSSKSTSGGTAALGCLVKDYFPEPVTVSWNSGALTSGVHTFPAVLQSSGLYSLSSVVTVPSSSLGTQTYICNVNHKPSNTKVDKKVEPKSCDKTHTCPPCPAPEAAGGPSVFLFPPKPKDTLMISRTPEVTCVVVDVSHEDPEVKFNWYVDGVEVHNAKTKPREEQYNSTYRVVSVLTVLHQDWLNGKEYKCKVSNKALGAPIEKTISKAKGQPREPQVCTLPPSRDELTKNQVSLSCAVKGFYPSDIAVEWESNGQPENNYKTTPPVLDSDGSFFLVSKLTVDKSRWQQGNVFSCSVMHEALHNHYTQKSLSLSP
light 1: EVQLLESGGGLVQPGGSLRLSCAASGFTFSSYAMSWVRQAPGKGLEWVSAIIGSGASTYYADSVKGRFTISRDNSKNTLYLQMNSLRAEDTAVYYCAKGWFGGFNYWGQGTLVTVSSASVAAPSVFIFPPSDEQLKSGTASVVCLLNNFYPREAKVQWKVDNALQSGNSQESVTEQDSKDSTYSLSSTLTLSKADYEKHKVYACEVTHQGLSSPVTKSFNRGEC
heavy 2: not shown
light 2: DIQMTQSPSSLSASVGDRVTITCRASQNIYVWLNWYQQKPGKAPKLLIYKASNLYSGVPSRFSGSRSGTDFTLTISSLQPEDFATYYCQQGQTYPYTFGQGTKLEIKRTVAAPSVFIFPPSDRKLKSGTASVVCLLNNFYPREAKVQWKVDNALQSGNSQESVTEQDSKDSTYSLSSTLTLSKADYEKHKVYACEVTHQGLSSPVTKSFNRGEC
notes: huIgG1 PG-LALA CrossFab 1+1; also called P1AE3133
In assay [1], B2 came in with a Kd of 1 nM, a koff of 0.000267 s⁻¹ and a kon of 261000 M⁻¹ s⁻¹. The Kd in assay [2] came to 1 nM. In addition, the binding result in assay [4] is on record as “binds”.

B3: P001.177 Fab (Fab, V domains shown)
VH: EVQLLESGGGLVQPGGSLRLSCAASGFYFTDYYMNWVRQAPGKGLEWLGFISNKANAYTTEYSASVKGRFTISRDKSKNTLYLQMNSLRAEDTATYYCTRDRGLRFYFDYWGQGTTVTVSS
VL: EIVLTQSPATLSLSPGERATLSCRASSSVTYIHWYQQKPGQAPRSWIYATSNLASGIPARFSGSGSGTDFTLTISSLEPEDFAVYYCQHWSSKPPTFGQGTKLEIK
notes: Fab from E. coli
In the assay with N(A2B2)A-avi-His [5], B3 returned a Kd of 0.29 nM, a koff of 7.85e-05 s⁻¹ and a kon of 267000 M⁻¹ s⁻¹. The koff in the assay with N(A2B2)A-avi-His [6] is 9.81e-05 s⁻¹. Also, in the assay with NA(B2)A-avi-His, the binding result was “no binding”.

B4: P006.038 Fab (Fab, V domains shown)
VH: EVQLLESGGGLVQPGGSLRLSCAASGFTFTDYYMNWVRQAPGKGLEWLGFIGNKANAYTTEYSASVKGRFTISRDKSKNTLYLQMNSLRAEDTATYYCTRDRGIRFGFDYWGQGTTVTVSS
VL: EIVLTQSPATLSLSPGERATLSCRASSSVTYIHWYQQKPGQAPRSWIYATSNLASGIPARFSGSGSGTDFTLTISSLEPEDFAVYYCQHWSSVPPTFGQGTKLEIK
notes: Fab from E. coli
Consider B4, for which, in the assay with N(A2B2)A-avi-His [5], the Kd was 0.25 nM, the off-rate (koff) stood at 5.78e-05 s⁻¹ and the kon worked out at 225000 M⁻¹ s⁻¹. Also, the koff in the assay with N(A2B2)A-avi-His [6] stood at 7.41e-05 s⁻¹. In addition, the binding result with NA(B2)A-avi-His is listed as “no binding”.

B5: P005.103 Fab (Fab, V domains shown)
VH: EVQLLESGGGLVQPGGSLRLSCAASGFTFTDYYMNWVRQAPGKGLEWLGFIGNKANAYTTEYSASVKGRFTISRDKSKNTLYLQMNSLRAEDTATYYCTRDRGIRFYFDYWGQGTTVTVSS
VL: EIVLTQSPATLSLSPGERATLSCRASSSVTYIHWYQQKPGQAPRSWIYATSNLASGIPARFSGSGSGTDFTLTISSLEPEDFAVYYCQHWSSISPTFGQGTKLEIK
notes: Fab from E. coli
As to B5, in the assay with N(A2B2)A-avi-His [5], the affinity, expressed as Kd, was 0.5 nM; the koff is 4.99e-05 s⁻¹; the kon was determined as 100000 M⁻¹ s⁻¹. Further, the koff with N(A2B2)A-avi-His [6] turned out to be 5.37e-05 s⁻¹. Besides, the binding result with NA(B2)A-avi-His is recorded as “no binding”.

B6: P005.097 Fab (Fab, V domains shown)
VH: EVQLLESGGGLVQPGGSLRLSCAASGFTFTDYYMNWVRQAPGKGLEWLGFIGNKANAYTTEYSASVKGRFTISRDKSKNTLYLQMNSLRAEDTATYYCTRDRGLRFSFDYWGQGTTVTVSS
VL: EIVLTQSPATLSLSPGERATLSCRASSSVTYIHWYQQKPGQAPRSWIYATSNLASGIPARFSGSGSGTDFTLTISSLEPEDFAVYYCQHWSSQPPTFGQGTKLEIK
notes: Fab from E. coli
As to B6, in the assay with N(A2B2)A-avi-His [5], the Kd came out at 0.91 nM, the koff was 8.54e-05 s⁻¹ and the kon came out at 94000 M⁻¹ s⁻¹. Also, the koff in the assay with N(A2B2)A-avi-His [6] was 8.87e-05 s⁻¹. In addition, the binding result in the assay with NA(B2)A-avi-His was “no binding”.

B7: P005.102 Fab (Fab, V domains shown)
VH: EVQLLESGGGLVQPGGSLRLSCAASGFTFTDYYMNWVRQAPGKGLEWLGFIGNKANAYTTEYSASVKGRFTISRDKSKNTLYLQMNSLRAEDTATYYCTRDRGIRFQFDYWGQGTTVTVSS
VL: EIVLTQSPATLSLSPGERATLSCRASSSVTYIHWYQQKPGQAPRSWIYATSNLASGIPARFSGSGSGTDFTLTISSLEPEDFAVYYCQHWSSKSPTFGQGTKLEIK
notes: Fab from E. coli
Regarding B7, in the assay with N(A2B2)A-avi-His [5], the Kd came to 0.29 nM, the koff came out at 3.92e-05 s⁻¹ and the kon turned out to be 134000 M⁻¹ s⁻¹. Further, the dissociation rate constant (koff) in the assay with N(A2B2)A-avi-His [6] turned out to be 4.24e-05 s⁻¹. In addition, the binding result with NA(B2)A-avi-His was “no binding”.

B8: P002.139 Fab (Fab, V domains shown)
VH: EVQLLESGGGLVQPGGSLRLSCAASGFYFTDYAMNWVRQAPGKGLEWLGVISNKANAYTTEYSASVKGRFTISRDKSKNTLYLQMNSLRAEDTATYYCTRDRGLRFYFDYWGQGTTVTVSS
VL: EIVLTQSPATLSLSPGERATLSCHASSSVTYIHWYQQKPGQAPRSWIYATSNLASGIPARFSGSGSGTDFTLTISSLEPEDFAVYYCQHWSSKPPTFGQGTKLEIK
notes: Fab from E. coli
In the case of B8, in the assay with N(A2B2)A-avi-His [5], the Kd is 0.63 nM, the koff was determined as 6.53e-05 s⁻¹ and the kon is 105000 M⁻¹ s⁻¹. Also, the koff with N(A2B2)A-avi-His [6] was 6.47e-05 s⁻¹. The binding result in the assay with NA(B2)A-avi-His was “no binding”.

One may read the Kd as the constant that tells how readily two partners part at equilibrium. Usually koff stands for the rate constant with which the complex falls apart. By kon is commonly meant a measure of how fast the partners come together. Read a high kon as faster complex formation.
